This is an account of results in US20050203009A1, “VPAC1 selective antagonists and their pharmacological methods of use” (Bayer Pharmaceuticals Corporation, priority 2004, published 2005).

Square brackets hold non-standard residues; d marks the D form. Primed or numbered codes have the meaning given here. Side chains are listed from the residue outwards. Ends that are not written are not given here. Peptide text beside a SMILES is read from it. maleimide″ = maleimide group of the 22 kD methoxy-PEG-maleimide reagent, which reacts with the Cys sulfhydryl to form a stable thioether linkage; maleimide = methoxy-PEG-maleimide (thioether to cysteine thiol) A value given as a limit tells only on which side of the number the result lay.

Experiment [1] has as its system NCI-H727 human non-small cell lung carcinoma cell line. The experiment can be described thus: NCI-H727 cancer cell proliferation assay (Alamar Blue). Type of experiment: cell-based. The method, then:
NCI-H727 is an adherent human non-small cell lung carcinoma cell line. The cells are grown in RPMI-1640 plus 2 mM L-Glutamine and 10% FBS and cells subcultured in the following manner: Medium was removed and cells were rinsed once in PBS solution. To harvest the cells 10 mls PBS containing 2 ml of trypsin-EDTA solution was added to a 75 ml flask. The flask was incubated at 37° C. until the cells detached. Fresh culture medium was added, aspirated and dispensed into new culture flasks. A split ratio of 1:3 to 1:4 was carried out 2 times per week. The 96-well assay was performed as follows: Day 1) Cells were seeded at 7000 cells/well in 0.2 ml complete medium/well and incubated overnight at 37° C. Day 2) Complete medium was aspirated from wells and 200 ul/well PBS was added and aspirated. Cells were then treated with peptides using the assay medium RPMI-1640 plus 2 mM L-Glutamine and 0.2% FBS at a final volume of 200 ul/well and incubated for 2 days. Day 4) Alamar Blue (10% of total volume) was added to wells and absorbance (530/590 nm) read at 0, 4, 6, 8, 10 and 24 hours.
Background: The colour change of resazurin is a common sign of viable cells or microbes.

The target in another experiment is T1, VPAC2 (Homo sapiens, UniProt P41587).
T1 construct: expressed in transfected cells; membranes
T1 sequence (P41587 24-438): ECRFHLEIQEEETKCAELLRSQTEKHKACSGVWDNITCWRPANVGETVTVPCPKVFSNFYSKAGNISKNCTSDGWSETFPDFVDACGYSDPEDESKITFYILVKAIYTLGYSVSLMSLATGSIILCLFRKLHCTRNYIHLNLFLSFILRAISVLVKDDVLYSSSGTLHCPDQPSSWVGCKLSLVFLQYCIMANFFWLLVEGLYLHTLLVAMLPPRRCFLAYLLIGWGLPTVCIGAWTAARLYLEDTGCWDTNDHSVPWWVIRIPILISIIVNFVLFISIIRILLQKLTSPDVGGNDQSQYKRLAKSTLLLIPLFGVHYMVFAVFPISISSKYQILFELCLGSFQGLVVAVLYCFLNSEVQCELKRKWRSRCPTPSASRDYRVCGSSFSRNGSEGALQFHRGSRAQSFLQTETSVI
Kind of experiment: Receptor competition assay, 125I-PACAP27 binding to CHO membranes (VPAC2). Conditions: membranes of VPAC2-transfected CHO cells, 0.1 nM 125I-PACAP27. The text has this:
In order to test for selective binding of the VPAC1 selective antagonist to the VPAC1, both the VPAC1 and VPAC2 receptors were expressed in CHO cells using the following procedure. The human VPAC1 and the VPAC2 were cloned via RT PCR from human heart mRNA and human testis mRNA, respectively, using TaqPlus Precision PCR System (Stratagene). The PCR products were subcloned into pCDNA3.1 (Invitrogen) for in vitro translation and mammalian expression. The cell line chosen for expression was the CHOcreluc line already expressing a cAMP response element-luciferase reporter along with Gα16. These cells were grown under hygromycin selection at 0.4 mg/ml. On the day of transfection, CHOcreluc cells at 70% confluency were washed with serum free media and transfected using Lipofectamine Plus Reagent (Gibco BRL). Stable pools were selected in the presence of 0.4 mg/ml hygromycin and 1.5 mg/ml G418. Once viably-frozen stocks had been made from these pools they were cloned by limiting dilution.
The capacity of the VPAC1 selective antagonist to selectively bind the VPAC1 as opposed to the VPAC2 receptor was measured using membranes prepared from CHO cells transfected with both receptors as described in Example 3. […] The filters were washed with cold 25 mM NaPO4 containing 1% BSA and counted in a gamma counter. […]

Experiment [2] has as its target T2, human VPAC1 (human, UniProt P32241 31-457).
T2 sequence (looked up): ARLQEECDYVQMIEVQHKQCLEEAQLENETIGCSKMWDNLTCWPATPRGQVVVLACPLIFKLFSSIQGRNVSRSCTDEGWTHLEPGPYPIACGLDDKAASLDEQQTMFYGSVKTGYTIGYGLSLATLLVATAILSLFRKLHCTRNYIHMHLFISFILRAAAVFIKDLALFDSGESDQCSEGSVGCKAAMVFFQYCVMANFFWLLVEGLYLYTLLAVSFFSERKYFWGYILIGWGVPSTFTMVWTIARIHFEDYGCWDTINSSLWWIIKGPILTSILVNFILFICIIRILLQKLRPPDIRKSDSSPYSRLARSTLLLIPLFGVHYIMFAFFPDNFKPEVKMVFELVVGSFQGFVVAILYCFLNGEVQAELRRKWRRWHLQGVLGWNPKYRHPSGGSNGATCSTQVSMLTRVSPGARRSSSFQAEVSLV
The experiment can be described thus: cell-based or functional assay.

Experiment [3] deals with T2, human VPAC1. The experiment can be described thus: ratio of the VPAC2 and VPAC1 IC50 values, 125I-PACAP27 competition on CHO membranes. The protocol:
(§1) Cells were washed with phosphate buffered saline (PBS), scraped in homogenization buffer (10 mM Tris pH 7.4, 2 mM EDTA, 5 mM MgCl2, 1 mM PMSF), followed by centrifugation at 4000 g for 10 minutes at 4° C. The cell pellet was resuspended in homogenization buffer and homogenized using a Polytron. Membranes were collected by centrifugation at 30,000 g for 30 minutes at 4° C., resuspended in homogenization buffer, and stored at −80° C. until use. […] After incubating at 37° C. for 20 minutes, bound ligand was collected on GF/C filters pretreated with 0.1% polyethylenimine. The filters were washed with cold 25 mM NaPO4 containing 1% BSA and counted in a gamma counter. All reagents were purchased from Sigma unless otherwise indicated.

For experiment [4], the target named is T2, human VPAC1. Kind of experiment: competition with 125I-PACAP27 on membranes of CHO cells expressing human VPAC1. The protocol: as §1

As to `CC[C@H](C)[C@H](NC(=O)[C@H](CO)NC(=O)[C@H](CCC(N)=O)NC(=O)[C@H](CC(C)C)NC(=O)[C@H](CC(C)C)NC(=O)[C@H](CCCCN)NC(=O)[C@H](CCCNC(=N)N)NC(=O)[C@H](C)NC(=O)[C@H](CO)NC(=O)[C@H](CC(C)C)NC(=O)[C@H](CCCNC(=N)N)NC(=O)[C@H](CCCCN)NC(=O)[C@H](CC(C)C)NC(=O)[C@@H](NC(=O)[C@H](CCCCN)NC(=O)[C@H](CCCNC(=N)N)NC(=O)[C@H](Cc1ccc(O)cc1)NC(=O)[C@H](CO)NC(=O)[C@H](CC(N)=O)NC(=O)[C@@H](NC(=O)[C@H](Cc1ccccc1)NC(=O)[C@@H](NC(=O)[C@H](C)NC(=O)[C@H](CC(=O)O)NC(=O)[C@@H](Cc1ccccc1)NC(=O)[C@H](Cc1c[nH]cn1)NC(C)=O)C(C)C)[C@@H](C)O)C(C)C)C(=O)N[C@@H](CC(C)C)C(N)=O` [Peptide R2P16] (HELM PEPTIDE1{[ac].H.[dF].D.A.V.F.T.N.S.Y.R.K.V.L.K.R.L.S.A.R.K.L.L.Q.S.I.L.[am]}$$$$V2.0), the “IC50 relative to reference compound R2P2” value in experiment [1] is reported as “three times lower”.

As a reminder, the IC50 is the concentration at which inhibition is half-maximal. Low values mean higher potency, high ones lower potency. Turning to “R2P11-PEG22kD: R2P11 (SEQ ID NO 5) PEGylated at the C-terminal cysteine with 22 kD methoxy-PEG-maleimide (Ac-H[dF]DAVFTNSYRKVLKRLSVRKLLQDILC([maleimide-methoxy‑PEG 22 kD]); not fully specified (C-terminus); printed as HfDAVFTNSYRKVLKRLSVRKLLQDILC*; also: C-terminal * undefined)”, in the experiment with VPAC2, the IC50 is greater than 10000 nM.

Molecule “R2P3-PEG22kD: R2P3 (SEQ ID NO 4) PEGylated at the C-terminal cysteine with 22 kD methoxy-PEG-maleimide (Ac-H[dF]DAVFTNSYRKVLKRLSARKLLQDILC([maleimide″-methoxy‑PEG 22 kD]); not fully specified (C-terminus); printed as HfDAVFTNSYRKVLKRLSARKLLQDILC*; also: C-terminal * undefined) [Peptide R2P3-PEG22kD]” registered an IC50 with VPAC2 greater than 10000 nM.

As for Ac-H[dF]DAVFTNSYRKVLKRLSARKLLQDILC([maleimide-methoxy‑PEG 22 kD])-NH2 (also called PEGylated R2P3) [R2P3-PEG22kD], the “CHO VPAC1 cAMP inhibition (IC50 against 1 nM VIP)” value (shortened to “CHO VPAC1 cAMP inhibition”) with human VPAC1 [2] came to 181 nM. In addition, in the experiment with human VPAC1 [3], the “VPAC2/1 Selectivity” value is greater than 480 fold. For the same molecule, in the experiment with human VPAC1 [4], the IC50 was found to be 21 nM.

With Ac-H[dF]DAVFTNSYRKVLKRLSVRKLLQDILC([maleimide-methoxy‑PEG 22 kD])-NH2 (also called PEGylated R2P11) [R2P11-PEG22kD], in the experiment with human VPAC1 [2], the “CHO VPAC1 cAMP inhibition” value amounted to 101 nM. In addition, the “VPAC2/1 Selectivity” value with human VPAC1 [3] was greater than 200 fold. Also, in the experiment with human VPAC1 [4], the IC50 amounted to 49 nM.

B1: R2P16 (peptide)
peptide: HFDAVFTNSYRKVLKRLSARKLLQSIL
HELM: PEPTIDE1{[ac].H.[dF].D.A.V.F.T.N.S.Y.R.K.V.L.K.R.L.S.A.R.K.L.L.Q.S.I.L.[am]}$$$$V2.0
SMILES: CC[C@H](C)[C@H](NC(=O)[C@H](CO)NC(=O)[C@H](CCC(N)=O)NC(=O)[C@H](CC(C)C)NC(=O)[C@H](CC(C)C)NC(=O)[C@H](CCCCN)NC(=O)[C@H](CCCNC(=N)N)NC(=O)[C@H](C)NC(=O)[C@H](CO)NC(=O)[C@H](CC(C)C)NC(=O)[C@H](CCCNC(=N)N)NC(=O)[C@H](CCCCN)NC(=O)[C@H](CC(C)C)NC(=O)[C@@H](NC(=O)[C@H](CCCCN)NC(=O)[C@H](CCCNC(=N)N)NC(=O)[C@H](Cc1ccc(O)cc1)NC(=O)[C@H](CO)NC(=O)[C@H](CC(N)=O)NC(=O)[C@@H](NC(=O)[C@H](Cc1ccccc1)NC(=O)[C@@H](NC(=O)[C@H](C)NC(=O)[C@H](CC(=O)O)NC(=O)[C@@H](Cc1ccccc1)NC(=O)[C@H](Cc1c[nH]cn1)NC(C)=O)C(C)C)[C@@H](C)O)C(C)C)C(=O)N[C@@H](CC(C)C)C(N)=O
notes: Synthetic VIP/GHRH hybrid peptide, not PEGylated; also called Peptide R2P16
For B1, in the experiment with human VPAC1 [2], the “CHO VPAC1 cAMP inhibition” value amounted to 50 nM. The “VPAC2/1 Selectivity” value with human VPAC1 [3] was greater than 700 fold. The same molecule gave an IC50 in the experiment with human VPAC1 [4] of 17 nM.
